Data on seven molecules can be found in US20250101437, “[…] FOR […] VARIANTS OF A TARGET ANALYTE, METHODS OF MAKING AND USES […]” (McMaster University, published 2025).

Where only a bound is given, the exact number is not on record here.

Data set [1] deals with SARS-CoV-2 spike S1 subunit, original Wuhan (SARS-CoV-2 (Wuhan), UniProt P0DTC2 P0DTC2:16-685). The data set can be described thus: filter; dot blot. The settings on record: tags: Sino Biological 40591-V08B1, label: 5'-32P.
Data set [2] deals with T1, SARS-CoV-2 spike S1 subunit, original Wuhan (SARS-CoV-2 (Wuhan), UniProt P0DTC2 P0DTC2:16-685). The data set is described as follows: competition. The settings on record: tags: Sino Biological 40591-V08B1.
Data set [3] has as its target SARS-CoV-2 spike (WH) on pseudotyped lentivirus (SARS-CoV-2 (Wuhan-Hu-1), UniProt P0DTC2 P0DTC2:14-1273). The data set is described as follows: filter. The following applies: protein: virion; tags: pseudotyped lentivirus, BEI NR-52948 kit; chain copies: 3; label: 5'-32P; four-way junction (proposed).
For another data set, the target named is MERS-CoV spike RBD (MERS-CoV, UniProt K9N5Q8 K9N5Q8:367-606). The data set is described as follows: filter. The following applies: label: 5'-32P.
In another data set the target is SARS-CoV-1 spike protein (SARS-CoV-1, UniProt P59594 P59594:14-1195). The data set can be described thus: filter. The following applies: label: 5'-32P.
In a further data set the target is SARS-CoV-1 spike RBD (SARS-CoV-1, UniProt P59594 P59594:306-527). The data set is described as follows: filter. The following applies: label: 5'-32P.
Data set [4] has as its target T1, SARS-CoV-2 spike S1 subunit, original …. The data set can be described thus: filter; dot blot. The settings on record: tags: Sino Biological 40591-V08B1; label: 5'-32P.
For another data set, the target named is Bovine serum albumin (Bos taurus, UniProt P02769 P02769:25-607). The data set is described as follows: filter; 50 nM protein. The settings on record: tags: Sigma-Aldrich; label: 5'-32P; four-way junction (proposed).
Chain of Bovine serum albumin (P02769 25-607, one chain of several): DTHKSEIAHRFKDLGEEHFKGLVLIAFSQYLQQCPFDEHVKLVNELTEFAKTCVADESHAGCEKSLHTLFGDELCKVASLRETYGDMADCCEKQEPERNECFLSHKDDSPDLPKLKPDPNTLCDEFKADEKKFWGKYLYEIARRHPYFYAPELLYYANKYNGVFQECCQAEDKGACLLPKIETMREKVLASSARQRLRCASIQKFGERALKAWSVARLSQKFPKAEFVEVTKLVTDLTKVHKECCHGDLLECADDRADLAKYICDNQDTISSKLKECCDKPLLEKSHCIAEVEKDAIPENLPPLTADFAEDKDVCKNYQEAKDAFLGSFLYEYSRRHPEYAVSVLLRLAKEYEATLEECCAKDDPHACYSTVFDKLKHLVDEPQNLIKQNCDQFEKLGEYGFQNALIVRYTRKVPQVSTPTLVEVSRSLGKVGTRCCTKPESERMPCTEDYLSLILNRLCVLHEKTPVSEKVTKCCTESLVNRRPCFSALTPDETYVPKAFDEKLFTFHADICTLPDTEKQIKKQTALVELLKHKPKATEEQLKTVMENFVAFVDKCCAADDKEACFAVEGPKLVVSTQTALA
For another data set, the target named is alpha-thrombin (Homo sapiens, UniProt P00734;P00734 P00734:328-363,P00734:364-622). The data set can be described thus: filter; 50 nM protein. The settings on record: tags: Sigma-Aldrich; label: 5'-32P; four-way junction (proposed).
In another data set the target is NL63 spike RBD (Human coronavirus NL63, UniProt Q6Q1S2 Q6Q1S2:481-616). The data set is described as follows: filter; 50 nM protein. The following applies: label: 5'-32P; four-way junction (proposed).
Chain of NL63 spike RBD (Q6Q1S2 481-616, one chain of several): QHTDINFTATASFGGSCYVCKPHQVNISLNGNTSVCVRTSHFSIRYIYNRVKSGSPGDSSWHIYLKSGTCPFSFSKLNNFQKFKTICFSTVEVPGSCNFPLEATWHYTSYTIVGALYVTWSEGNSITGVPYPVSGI
The target in another data set is OC43 spike RBD (Human coronavirus OC43, UniProt P36334 P36334:333-607). The data set can be described thus: filter; dot blot; very weak binding. The following applies: label: 5'-32P; four-way junction (proposed).
Chain of OC43 spike RBD (P36334 333-607, one chain of several): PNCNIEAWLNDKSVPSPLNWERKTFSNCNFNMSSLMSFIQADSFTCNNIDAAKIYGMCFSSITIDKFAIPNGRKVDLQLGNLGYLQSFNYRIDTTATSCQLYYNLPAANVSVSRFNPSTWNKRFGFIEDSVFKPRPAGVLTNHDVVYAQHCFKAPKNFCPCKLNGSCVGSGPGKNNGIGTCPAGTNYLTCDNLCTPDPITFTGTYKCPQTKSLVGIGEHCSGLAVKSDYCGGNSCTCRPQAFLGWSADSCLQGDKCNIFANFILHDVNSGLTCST
A further data set has as its target 229E spike RBD (Human coronavirus 229E, UniProt P15423 P15423:293-435). The data set is described as follows: filter; dot blot; very weak binding. The settings on record: label: 5'-32P; four-way junction (proposed).
Data set [5] addresses SARS-CoV-2 spike trimer, original Wuhan (WHS) (SARS-CoV-2 (Wuhan-Hu-1), UniProt P0DTC2 P0DTC2:14-1213). The data set can be described thus: filter; […]; binding buffer ([…], Mg, Tween-20, pH 7.4). The settings on record: tags: full-length trimeric spike, Expi293 cells, Ni-NTA purified; chain copies: 3 (stated trimeric); label: 5'-32P.

Chain of 229E spike RBD (P15423 293-435, one chain of several): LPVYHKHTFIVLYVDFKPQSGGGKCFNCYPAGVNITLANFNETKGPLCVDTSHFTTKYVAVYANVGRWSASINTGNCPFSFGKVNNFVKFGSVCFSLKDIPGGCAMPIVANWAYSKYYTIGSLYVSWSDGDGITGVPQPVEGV

B1: MSA52-T1 (ssDNA)
DNA: TTACGTCAAGGTGTCATTGGCTCCGGGCCTGGCGTCGGTCGTCTCTCGCGAAGCATCTCTTTGGCGTG
Broadly, the Kd is the concentration at which binding is half-saturated. Take B1: in data set [1], binding was put at a Kd of 61.8 nM.

B2: MSA52-T3 (ssDNA)
DNA: TTACGTCAAGGTGTCACTCCGTAGGGTTTGGCTCCGGGCCTGGCATCTCTTTGGCGTG
B2 returned a dissociation constant Kd in data set [1] of 94.8 nM.

B3: Mutant Control (MC, shuffled MSA52) (ssDNA)
DNA: TCTTTCGTGCCATCCTGCGGGTGGCTGTCCGAGGCTGGTGGCTCTGCAAGTGCCACGCTTTATCTGAGGTTCGCCGGTA
Turning to B3, the binding result in data set [2] is recorded as “no binding”.

B4: MSA52-T2 (ssDNA)
DNA: TTACGTCAAGGTGTCACTCCGTAGGGTTTGCTGGCGTCGGTCGTCTCTCGCGAAGCATCTCTTTGGCGTG
As to B4, the dissociation constant (Kd) in data set [1] was 53.4 nM.

B5: MSA52 (ssDNA)
DNA: TTACGTCAAGGTGTCACTCCGTAGGGTTTGGCTCCGGGCCTGGCGTCGGTCGTCTCTCGCGAAGCATCTCTTTGGCGTG
Take B5: the dissociation constant (Kd) in [3] is 0.0184 nM; in the data set with SARS-CoV-1 spike protein, over 150 nM; in data set [4] it was 6.6 nM; in the data set with OC43 spike RBD, over 200 nM; with 229E spike RBD it was over 200 nM; in [5], 3.6 nM. Besides, the binding result with MERS-CoV spike RBD, in the data set with SARS-CoV-1 spike RBD, in the data set with Bovine serum albumin, in the data set with alpha-thrombin and with NL63 spike RBD was “no binding” each time.

B6: MSA52-T4 (ssDNA)
DNA: TTACGTCAAGGTGTCACTCCGTAGGGTTTGGCTCCGGGCCTGGCGTCGGTCGCGAAGCATCTCTTTGGCGTG
B6: the dissociation constant (Kd) in [1] came out at 6 nM.

B7: MSA52-T5 (ssDNA)
DNA: ACGCCAAGGTGTCACTCCGTAGGGTTTGGCTCCGGGCCTGGCGTCGGTCGCGAAGCATCTCCTTGGCGT
In turn, B7 gave an equilibrium dissociation constant (Kd) in [1] (four-way junction (proposed)) of 5.5 nM.
